Measurements reported in patent US20210403586A1, “MUTANT OF RANKL AND PHARMACEUTICAL COMPOSITION COMPRISING SAME FOR PREVENTING OR TREATING OSTEOPOROSIS” (INDUSTRY-ACADEMIC COOPERATION FOUNDATION CHOSUN UNIVERSITY, priority 2018, published 2021).

Experiments:
[1] = tested on: RANK and LGR4 signaling; assay: Western blots of RANK and LGR4 signaling pathway proteins, RANKL variants; type: cell-based, mouse
Protocol: (§1) Proteins were separated by SDS-PAGE and electropermeated into a nitrocellulose membrane (Bio-Rad). After blocking the membrane with 5% (weight/volume) skim milk in TBST [10 mM Tris (pH 7.5), 150 mM NaCl, 0.1% (vol/vol) Tween 20], each mouse serum for primary antibody in the blocking solution was examined. The membrane was washed three times with Tris buffered saline. […] peroxidase (HRP)-conjugated secondary antibody was diluted 1:5000 with TBST in 1% (wt/vol) skim milk powder. ECL_system (Amersham Pharmacia Biotech) was used as the membrane.
Primary antibodies: AKT (Cell Signaling Technology, 1:1000), phospho-AKT (Cell Signaling Technology, #9271S, 1:1000), p38 (Cell Signaling Technology, 9212S, 1:1000), phospho-p38 (Cell Signaling Technology, #9211S, 1:1000), ERK (Cell Signaling Technology, 9102S, 1:1000), phospho-ERK (Cell Signaling Technology, #9101S, 1:1000), JNK (Cell Signaling Technology, 9252S, 1:1000), phosphoJNK (Cell Signaling Technology, #9251S, 1:1000), GSK-3β (Cell Signaling Technology, 9315S, 1:1000), phosphoGSK-3β (Cell Signaling Technology, #9336S, 1:1000), Src (Cell Signaling Technology, 2108S, 1:1000), phosphoSrc (Cell Signaling Technology, #2105S, 1:1000), NF-KB p65 (Cell Signaling Technology, #3034, 1:1000), phosphop65 (Cell Signaling Technology, #3031, 1:1000), RANK (Cell Signaling Technology, 4845S, 1:1000), Gaq (Cell Signaling Technology, 14373S, 1:1000), LGR4 (MyBioSource, MBS468030, 1:500), 20112360C-1, and GAPDH (Santa-Cruz Biotechnology, 1:2500).
To investigate the interaction of mRANKL variants and RANK, the co-immunoprecipitation (Co-IP) assays were carried out using mRANKL-WT/mRANKL-MT3 and RANK/LGR4 (FIG. 12A). In addition, wild-type RANKL induced MAPK, AKT, NF-κB p65, and GSK-3 phosphorylation, which is involved in LGR4 signaling (FIG. 12B).

[2] = tested on: RANKL; assay: Western blot of serum for antibodies after mtRANKL immunization; type: in vivo, mouse; details: mice immunized 3 times with 0.2 mg mtRANKL with aluminum hydroxide adjuvant
Protocol: as §1
(§2) 17-week-old […] BALB/c mice were equally divided into 3 groups. The group was divided into a negative control group in which PBS was intraperitoneally injected, a group in which only wtRANKL was injected, and a group in which wtRANKL was injected after immunization with mtRANKL for 52 days. mtRANKL was injected after mixing with an aluminum hydroxide adjuvant. The immunization process started with 1st immunization of mtRANKL at 52 days, 2nd immunization at 39 days, 3rd immunization at 14 days each before injection of wtRANKL, and a total of 3 immunizations was performed. The amount of mtRANKL was 0.2 mg per mouse.
To determine whether antibodies were produced due to mtRANKL immunization, Western blot of Reference Example 4 was performed on the collected serum, and the results are shown in FIG. 6A.

[3] = tested on: BMMs; assay: Real-time PCR of osteoclastogenesis mRNA in RANKL-induced BMMs; type: cell-based, mouse; details: mRANKL-MT3-induced BMMs compared with mRANKL-WT induced BMMs
Protocol: Meanwhile, for Real-time PCR, BMM cells were incubated with 30 ng/mL M-CSF and 75 ng/mL sRANKL (R&D Systems) or isolated RANKL in 6-well plates. Total RNA was extracted using TRIzol reagent (Invitrogen, Thermo Fisher Scientific, Inc.). The cDNA was synthesized from 2 μg total RNA using ReverTra Ace qPCR RT Master Mix (TOYOBO, Osaka, Japan). Real-time PCR was conducted on a CFX Connect RealTime PCR Detection System (Bio-Rad, Hercules, Calif., USA) in a reaction mixture (total volume, 20 μL) containing IQ SYBR Green Supermix (Bio-Rad), 10 pmol forward primer, 10 pmol reverse primer, and 1 μg cDNA.

[4] = tested on: BMMs; assay: Bone-resorption assay (Osteo Assay Surface plates); type: cell-based, mouse; details: 6 days, mRANKL-MT3 150 ng/mL
Protocol: (§3) We used bone-resorption and F-actin ring formation assays to investigate osteoclast activity. To observe bone resorption in vitro, BMMs were cultured in Corning Osteo Assay Surface 96-well Multiple Well Plates (Sigma) with 30 ng/mL M-CSF and 75 ng/mL sRANKL (soluble RANKL; R&D Systems) or isolated RANKL for 6 days. Then, the plates were washed with pure water. To monitor actin ring formation, BMMs were grown on glass slides. After culture, the cells were fixed with 4% formalin, permeabilized with 0.5% Triton X100 in PBS for 5 min at room temperature, and incubated with 0.5 mg/mL TRITC-labelled phalloidin for 30 min. The cells were then rinsed with PBS. F-actin rings were visualized using a fluorescence ECLIPSE Ts2R microscope (Nikon, Tokyo, Japan).

[5] = tested on: BMMs; assay: F-actin ring formation assay; type: cell-based, mouse; details: mRANKL-MT3 150 ng/mL
Protocol: as §3

[6] = tested on: wtRANKL-induced mouse; assay: mtRANKL immunization in wtRANKL-induced osteoporosis mice, micro-CT; type: in vivo
Protocol: The right femur of each mouse subjected to each experiment was incised and CT imaging was performed using a Quantum GX pCT imaging system (PerkinElmer, Hopkinton, Mass., USA) located at the Korea Basic Science Institute in Gwangju. As for the X-ray source, the field of view was set to 45 mm, 90 kV and […] (voxel size, 90 μm; scanning time, 14 minutes). CT imaging was performed using a Quantum GX 3D Viewer software. After scanning, image segmentation was performed in Analyze (AnalyzeDirect, Overland Park, Kans., USA). Briefly, the legs were segmented using semi-automatic and manual tools (e.g., object extractor, area expansion, and object separator) using volume editing tools. Then, a 3D rendering of the leg was created, and bone mineral density (BMD), bone volume (BV), bone volume percentage (%), and trabecular thickness were calculated using the ROI tools.
as §2
After 52 days, PBS was injected into the negative control group and wtRANKL was injected into the other two groups. Next day, wtRANKL was injected once more. wtRANK was subcutaneously injected (2.0 mg/kg). Serum was collected to determine the titer of anti-RANKL antibody. Then, after extracting tibias, the adhesive soft tissues of tibias were removed.
To examine whether RANKL has a bone destruction effect when RANKL was injected after immunization with mtRANKL, micro-CT analysis was performed by the method of Reference Example 6.

[7] = wtRANKL-injected mice vs mtRANKL-immunized mice with wtRANKL injection

B1: mRANKL-MT3: mouse RANKL mutant: K180R, D189I, R190K, H223F, H224Y; nucleic acid SEQ ID NO: 3 (protein, UniProt O35235 158-316, looked up, variant K180R D189I R190K H223F H224Y)
chain: KPEAQPFAHLTINAASIPSGSHRVTLSSWYHIKGWAKISNMTLSNGKLRVNQDGFYYLYANICFRFYETSGSVPTDYLQLMVYVVKTSIKIPSSHNLMKGGSTKNWSGNSEFHFYSINVGGFFKLRAGEEISIQVSNPSLLDPDQDATYFGAFKVQDID
- GSK-3 phosphorylation ([1]; BMMs, Western blot): induced
- MAPK, AKT, and NF-κB p65 phosphorylation ([1]; BMMs, Western blot): lower
- src phosphorylation ([1]; mRANKL-MT3-induced BMMs vs mRANKL-WT induced BMMs): significantly lower
- antibodies in serum (Western blot) [2]: antibodies were detected
- TRAP, NFATc1, and OSCAR mRNA expression [3]: down-regulated
- resorption pits [4]: no resorption pits
- F-actin ring formation [5]: no resorption pits or F-actin rings were observed
- bone volume and percentage of bone volume ([6]; compared with PBS-treated mice): maintained at similar levels
- BMD of tibias [6, 7]: 795.8 ± 11.9 mg/mL
- trabecular bone architecture of proximal tibias (micro-CT) [6, 7]: thicker fibers and higher density than the wtRANKL-injected mice
